Measured values published in patent US20180086804A1 (COMMISSARIAT A L ENERGIE ATOMIQUE ET AUX ENERGIES …, published 2018).
No end group written: not given here.

B1: CCNB1 128-142 (peptide)
peptide: SPMETSGCAPAEEDL-NH2
B2: CCNB1 81-95 (peptide)
peptide: KPLEKVPMLVPVPVS-NH2
B3: CCNB1 402-416 (peptide)
peptide: NKYATSKHAKISTLP-NH2
B4: CCNB1 185-199 (peptide)
peptide: QAVRPKYLLGREVTG-NH2
B5: CCNB1 231-245 (peptide)
peptide: DRFMQNNCVPKKMLQ-NH2
B6: CCNB1 291-305 (peptide)
peptide: RALNFGLGRPLPLHF-NH2
B7: CCNB1 179-193 (peptide)
peptide: RQLEEEQAVRPKYLL-NH2
B8: CCNB1 332-346 (peptide)
peptide: LDYDMVHFPPSQIAA-NH2
B9: CCNB1 50-64 (peptide)
peptide: NKVSEQLQAKMPMKK-NH2
B10: CCNB1 147-161 (peptide)
peptide: SDVILAVNDVDAEDG-NH2
B11: CCNB1 151-165 (peptide)
peptide: LAVNDVDAEDGADPN-NH2
B12: CCNB1 347-361 (peptide)
peptide: GAFCLALKILDNGEW-NH2
B13: CCNB1 58-72 (peptide)
peptide: AKMPMKKEAKPSATG-NH2
B14: CCNB1 37-51 (peptide)
peptide: PGLRPRTALGDIGNK-NH2
B15: CCNB1 43-57 (peptide)
peptide: TALGDIGNKVSEQLQ-NH2

Target: T1, HLA-DR1 (HLA-DRB1*01:01) (human)
T1 construct: mature; class II HLA molecule purified from homozygous EBV-transformed lymphoblastoid cells with antibody L243
Assay: competition ELISA vs biotin-HA 306-318;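 also: HLA and competitor incubated 24 to 72 h, maximal signal taken from wells lacking competitor, background from wells lacking HLA molecule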

Binder | relative affinity
B1 | 3590
B2 | 524
B3 | 367
B4 | 59
B5 | 11
B6 | 1
B7 | 9000
B8 | 224

Target: T2, HLA-DRB5 (HLA-DRB5*01:01) (human)
T2 construct: mature; purified from homozygous EBV-transformed lymphoblastoid cells with antibody L243
Assay: competition ELISA vs biotin-HA 306-318;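 also: HLA and competitor incubated 24 to 72 h, maximal signal taken from wells lacking competitor, background from wells lacking HLA molecule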

Binder | relative affinity
B3 | 1730
B9 | 51
B4 | 1670
B5 | 1580
B6 | 4
B7 | 2160
B8 | 1580

Target: T3, HLA-DR4 (HLA-DRB1*04:01) (human)
T3 construct: mature; purified from homozygous EBV-transformed lymphoblastoid cells with antibody L243
Assay: competition ELISA vs biotin-HA 306-318;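 also: HLA and competitor incubated 24 to 72 h, maximal signal taken from wells lacking competitor, background from wells lacking HLA molecule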

Binder | relative affinity
B2 | 500
B3 | 707
B4 | 260
B5 | 52
B10 | 54
B6 | 1410
B8 | 289
B11 | 667

Target: T4, HLA-DR11 (HLA-DRB1*11:01) (human)
T4 construct: mature; purified from homozygous EBV-transformed lymphoblastoid cells with antibody L243
Assay: competition ELISA vs biotin-HA 306-318;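 also: HLA and competitor incubated 24 to 72 h, maximal signal taken from wells lacking competitor, background from wells lacking HLA molecule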

Binder | relative affinity
B3 | 4
B12 | 9
B9 | 1550
B4 | 22
B5 | 2000
B6 | 1000
B8 | 511
B13 | 40

Target: T5, HLA-DR7 (HLA-DRB1*07:01) (human)
T5 construct: mature; purified from homozygous EBV-transformed lymphoblastoid cells with antibody L243
Assay: competition ELISA vs biotin-YKL

Binder | relative affinity
B3 | 9
B6 | 3
B7 | 271
B8 | 20

Target: T6, HLA-DR13 (HLA-DRB1*13:01) (human)
T6 construct: mature; purified from homozygous EBV-transformed lymphoblastoid cells with antibody L243
Assay: competition ELISA vs biotin-B1 21-36

Binder | relative affinity
B14 | 422
B9 | 258
B4 | 4
B15 | 1790
B7 | 943
B13 | 683

Target: T7, HLA-DR15 (HLA-DRB1*15:01) (human)
T7 construct: mature; purified from homozygous EBV-transformed lymphoblastoid cells with antibody L243
Assay: competition ELISA vs biotin-A3 152-166

Binder | relative affinity
B12 | 1
B15 | 300
B10 | 7
B6 | 65
B8 | 36
